Data on three molecules can be found in article PMC11178898, “A clade of receptor-like cytoplasmic kinases and 14-3-3 proteins coordinate inositol hexaphosphate accumulation” (Nature Communications, 2024).

Assay [1] has as its target IPK2β, Split-LUC fusion. As to the kind of experiment: Split-LUC. Particulars: cluc-IPK2β, 35S::IPCK1-flag co-infiltrated (1:1:2), parent value is P2 (nluc-GRF4, cluc-IPK2β …), parent: 7442.09.
Assay [2] deals with T1, IPK1-HIS (Arabidopsis thaliana, UniProt Q93YN9 1-451).
T1 construct: IPK1, inositol polyphosphate kinase, Arabidopsis thaliana; the CDS was cloned into pCOLD-TF; source: E. coli BL21 (DE3), pCOLD-TF, purified
T1 sequence (looked up): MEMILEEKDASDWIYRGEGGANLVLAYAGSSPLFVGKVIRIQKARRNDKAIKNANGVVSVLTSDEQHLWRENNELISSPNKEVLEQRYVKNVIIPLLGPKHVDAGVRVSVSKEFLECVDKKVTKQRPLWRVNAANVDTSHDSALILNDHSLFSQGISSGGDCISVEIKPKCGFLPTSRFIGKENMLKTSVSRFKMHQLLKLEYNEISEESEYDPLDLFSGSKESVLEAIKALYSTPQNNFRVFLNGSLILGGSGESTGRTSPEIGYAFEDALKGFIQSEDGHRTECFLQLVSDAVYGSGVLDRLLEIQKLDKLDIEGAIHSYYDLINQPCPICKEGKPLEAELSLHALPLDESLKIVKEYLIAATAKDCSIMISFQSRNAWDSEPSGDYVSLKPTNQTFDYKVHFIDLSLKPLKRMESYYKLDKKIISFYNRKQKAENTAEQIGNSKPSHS
Kind of assay: pull-down; in vitro; GST- and HIS-tagged proteins from E. coli BL21 (DE3); bait on GST or Ni-NTA beads, incubated with the protein of the other tag on ice for 2 h, washed with PBS, blot with anti-HIS and anti-GST. The note with it: both partners purified.

For “GRF4, Split-LUC fusion (from UniProt P46077) S242A”, in assay [1] (P3: nluc-GRF4 S242A, Total cps 452167, Areas 116.3), the response (cps (average)) was determined as 3890.
Regarding “GRF4, Split-LUC fusion (from UniProt P46077) S242D”, the response (cps (average)) in assay [1] (P4: nluc-GRF4 S242D, Total cps 2045502, Areas 266) came out at 7690.

B1: GRF4-GST (natural protein, Arabidopsis thaliana, UniProt P46077 1-267, looked up)
chain: MAAPPASSSAREEFVYLAKLAEQAERYEEMVEFMEKVAEAVDKDELTVEERNLLSVAYKNVIGARRASWRIISSIEQKEESRGNDDHVTTIRDYRSKIESELSKICDGILKLLDTRLVPASANGDSKVFYLKMKGDYHRYLAEFKTGQERKDAAEHTLTAYKAAQDIANAELAPTHPIRLGLALNFSVFYYEILNSPDRACNLAKQAFDEAIAELDTLGEESYKDSTLIMQLLRDNLTLWTSDMQDESPEEIKEAAAPKPAEEQKEI
notes: GRF4, 14-3-3 protein, Arabidopsis thaliana; the CDS was cloned into pGEX-4T-1; source: E. coli BL21 (DE3), held on GST beads
As for B1, the binding result in assay [2] is on record as “binds”.
